Test results reported in publication doi:10.1101/2022.04.06.487260, “The purified recombinant FAT domain of the Focal Adhesion Kinase does not bind directly to recombinant Talin or MBD2 in vitro” (bioRxiv, 2022).

Target: T1, Talin F2F3 (206-405, C336S) (UniProt Q9Y490 206-405, C336S)
T1 construct: Talin (head 1-433, rod 434-2541), F2 and F3 lobes of the FERM domain, residues 206-405; gene codon optimised and synthesised; the purification (beads before and after cleavage, elution as a 25 kDa protein) describes the cleaved protein; also called Talin206-405; Talin F2F3 head
Experiment: NMR titration; 1H-15N HSQC; 90 μM 15N-labelled FAT incubated with Talin at molar ratios of 1:0.5, 1:1 and 1:2; 25 °C
Settings: both partners purified

T1 sequence (Q9Y490 206-405 C336S): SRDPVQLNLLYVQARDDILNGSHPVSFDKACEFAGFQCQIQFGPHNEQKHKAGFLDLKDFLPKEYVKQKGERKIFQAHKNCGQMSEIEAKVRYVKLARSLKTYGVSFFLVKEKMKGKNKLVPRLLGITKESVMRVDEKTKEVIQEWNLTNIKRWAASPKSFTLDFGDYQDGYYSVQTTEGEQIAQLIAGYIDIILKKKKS

B1: FAT domain of human FAK (892-1052) (domain or fragment, UniProt Q05397 892-1052, looked up)
chain: SSPADSYNEGVKLQPQEISPPPTANLDRSNDKVYENVTGLVKAVIEMSSKIQPAPPEEYVPMVKEVGLALRTLLATVDETIPLLPASTHREIEMAQKLLNSDLGELINKMKLAQQYVMTSLQQEYKKQMLTAAHALAVDAKNLLDVIDQARLKMLGQTRPH
notes: focal adhesion kinase (FAK), human, residues 892-1052: FAT domain with N-terminal residues preceding the four-helix bundle (922-1049); Expressed as GST fusion from pGex-6P2 and released from the beads with 3C protease; 15N-labelled (M9 medium with 15N-NH4Cl) for the NMR experiments; also called FAT892-1052; FAK FAT; source: E. coli BL21, purified (Glutathione Sepharose 4B, 3C protease, Superdex …)
Kd: > 100 µM
